3 substances from patent US20160060340A1 can be followed below.

Usually Kd stands for the free concentration of one partner at which half of the binding sites on the other are occupied at equilibrium, for simple one-to-one binding. Low readings indicate tighter binding, high ones weaker binding.

Assay [1] has as its target FOLR1-mycHis (human) (UniProt P15328). Description: SPR as in Example 29, antibody captured, FOLR1-mycHis as analyte.
The target is the same in assay [2]. Put plainly: SPR (Biacore T100), antibody captured on CM5 chip, FOLR1-mycHis as analyte, single-cycle kinetics, 1:1 binding model. For orientation: SPR reads the build-up and loss of mass on a sensor chip optically.

Sequence of FOLR1-mycHis (human) (P15328 25-233): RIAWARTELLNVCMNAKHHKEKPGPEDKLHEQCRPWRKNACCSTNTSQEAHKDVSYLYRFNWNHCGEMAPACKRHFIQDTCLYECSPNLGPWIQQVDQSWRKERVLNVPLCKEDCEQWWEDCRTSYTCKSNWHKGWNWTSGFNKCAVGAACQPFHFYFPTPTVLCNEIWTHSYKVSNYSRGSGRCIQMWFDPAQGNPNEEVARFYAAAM

In the case of MORAb-003DF antibody, in assay [1], the affinity as percent of that of HuRA15-7CTAcc antibody was 1.1%.
In turn, LK26 antibody (GeneTex) displayed a Kd in assay [2] of 66 nM.
On the same count and under the same terms, as for MOv18 antibody (ALEXIS BIO…), the figure is 92 nM.
